Earlier results on 1 substance are cited in paper PMC4303049.

The term Kd denotes the constant that tells how readily two partners part at equilibrium.

The target of data set [1] is PACS-1 FBR (Homo sapiens) (UniProt Q6VY07).
The target of data set [2] is PACS-2 FBR (Homo sapiens) (UniProt Q86VP3).
Chain of PACS-2 FBR (Homo sapiens) (Q86VP3 37-186): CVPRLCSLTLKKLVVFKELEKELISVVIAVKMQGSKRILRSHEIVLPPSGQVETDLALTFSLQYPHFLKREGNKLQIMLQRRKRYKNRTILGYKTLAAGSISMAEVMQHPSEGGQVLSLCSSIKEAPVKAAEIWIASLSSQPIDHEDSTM

Chain of PACS-1 FBR (Homo sapiens) (Q6VY07 117-266): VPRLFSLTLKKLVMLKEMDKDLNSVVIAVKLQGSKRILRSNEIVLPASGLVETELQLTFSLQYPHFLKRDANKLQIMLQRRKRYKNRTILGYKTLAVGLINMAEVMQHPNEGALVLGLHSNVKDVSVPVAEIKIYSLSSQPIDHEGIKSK

For “Polycystin-2 phosphorylated acidic cluster (from UniProt Q13563)”, the Kd in data set [1] was 14.8 µM; in data set [2] it was 15.4 µM.
